Measured values from patent US20160046707A1 (EISAI R AND D MANAGEMENT, published 2016).
Changes are numbered by the printed parent chain.

B1: humanized anti-human CCL20 antibody 36LK3/36HC2 (antibody, human IgG1, kappa, V domains shown)
VH: QVQLVQSGAEVKKPGASVKVSCKASGYTFTNYWMHWVRQAPGQGLEWMGVIDPSDSYTTYAQKFQGRVTMTVDTSTSTVYMELSSLRSEDTAVYYCARGNYGVDYAMDYWGQGTLVTVSS
VL: DIQMTQSPSSLSASVGDRVTITCGASENIYGALNWYQRKPGKAPKLLIYGATNLADGVPSRFSGSGSGRDYTLTISSLQPEDFATYYCQNVLITPYTFGQGTKLEIKR
notes: expressed in HEK293 cells; also called HC2/LK3; HC2LK3
B2: humanized anti-human CCL20 antibody 36LC3/36HC2 (antibody, human IgG1, kappa, V domains shown)
VH: B1 VH
VL: B1 VL with G24R, R38Q, D70Q, T72S, Q100G
notes: expressed in HEK293 cells; also called HC2/LC3; HC2LC3
B3: mouse anti-human CCL20 monoclonal antibody 36F7C10 (antibody, V domains shown)
VH: QVQLQQPGAELVKPGASVKMSCKASGYTFTNYWMHWVKQRPGQGLEWIGVIDPSDSYTTYNQKFKGKATLTVDTSSSTAYMQLSSLTSEDSAVYYCTRGNYGVDYAMDYWGQGTSVTVSS
VL: DIQMTQSPASLSASVGETVTITCGASENIYGALNWYQRKQGKSPQLLIYGATNLADGMSSRFSGSGSGRQYSLKISSLHPDDVATYYCQNVLITPYTFGGGTKLEIK
notes: Mouse hybridoma antibody; also called MouseMAb; parental mouse clone 36F7C10
B4: chimeric 36F7C10 antibody (36F7C10-hFc) (antibody, V domains shown)
VH: B3 VH
VL: B3 VL
notes: also called chimeric 36F710; Chimeric MAb

How the values were obtained:
[1] = biological target: T1, cynomolgus CCL20-secreted alkaline phosphatase (SEAP) fusion (cynomolgus monkey); experiment: ELISA (fluorescent HRP substrate): CCL20-SEAP captured on anti-alkaline phosphatase in 5-fold dilutions from 20 nM (x axis, nM), antibody at 1 ug/ml
T1 construct: also called cCCL20; cynomolgus CCL20-SEAP; not shown: the SEAP reporter (cDNA from Clontech pSEAP-Enhancer) and its junction to CCL20
T1 chain: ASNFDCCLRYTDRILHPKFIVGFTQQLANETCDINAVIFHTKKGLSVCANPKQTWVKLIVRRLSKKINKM
Procedure: (§1) To test whether the chimeric and humanized antibodies can bind to mouse, cynomolgus, or rhesus macaque CCL20 orthologs, we used ELISA assays as illustrated in FIG. 15. Recombinant secreted alkaline phosphatase (SEAP)-chemokine fusion proteins were engineered as described in Example 2, expressed and purified for all of the CCL20 orthologs tested. Nunc MaxiSorb flat-bottom black plates were coated with 1 μg/ml mouse anti-placental alkaline phosphatase antibody (Pierce, cat# MA1-19354) in 50 mM sodium bicarbonate, pH 9.4, overnight at 4° C. Plates were then blocked using 1× phosphate buffered saline with Tween-20 (PBST) with 5% bovine serum albumin (BSA) for 2 hours at room temperature. 20 nM SEAP-CCL20 fusion proteins were serially diluted 5-fold in Opti-MEM medium (Invitrogen). Chimeric and humanized (HC2/LC3 and HC2/LK3) antibodies were diluted to 1 μg/ml in 1×PBST with 5% BSA, added to the plates, and incubated for 1 hr at room temperature. The plates were then washed with 1×PBST with 5% BSA three times. […] QuantaBlu fluorescent HRP substrate (Pierce cat#15169) was added for detection of bound antibody by measuring fluorescence in a Molecular Devices M5 (Excitation 325 nm/Emission 420 nm) plate reader.
(§2) While the hamster anti-mouse CCL20 antibody 2F5-5 MAb bound mouse CCL20 with a 50% effective dose (EC₅₀) of 64 pM (data not shown), neither the chimeric nor humanized anti-human CCL20 antibodies bound detectably to mouse CCL20 or rat CCL20 under the conditions described above. By contrast, both the chimeric and humanized antibodies effectively bound to human, rhesus, and cynomolgus CCL20 (FIGS. 16A-C, 17A and B).

[2] = biological target: T2, rhesus CCL20-secreted alkaline phosphatase (SEAP) fusion (rhesus monkey); experiment: as above
T2 construct: also called rCCL20; rhesus CCL20-SEAP; not shown: the SEAP reporter (cDNA from Clontech pSEAP-Enhancer) and its junction to CCL20
T2 chain: T1 chain with I38V
Procedure: as §1, §2

[3] = biological target: T3, human CCL20-secreted alkaline phosphatase (SEAP) fusion (human, UniProt P78556 27-96); experiment: as above
T3 construct: also called hCCL20; human CCL20-SEAP; not shown: secreted alkaline phosphatase (SEAP), cDNA from pSEAP-Enhancer vector (Clontech)
Procedure: as §1, §2

recombinant human CCL16 = biological target: T4, recombinant human CCL16 (human, UniProt O15467 24-120); experiment: ELISA, plate-bound chemokine (1 ug/ml), antibody 10 ug/ml, OD450
T4 construct: also called HCC-4
T4 sequence (looked up): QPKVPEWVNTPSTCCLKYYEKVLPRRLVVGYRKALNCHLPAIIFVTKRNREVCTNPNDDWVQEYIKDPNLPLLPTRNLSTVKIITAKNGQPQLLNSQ
Outline: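 Wells coated overnight at 4 °C with 1 μg/ml recombinant human chemokine in PBS, blocked 1 h, then incubated 1 h at room temperature with antibodies at 10 μg/ml in 0.02% Tween 20/PBS. TMB development 15–30 min, stopped with 2 M H2SO4, OD read at 450 nm.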

[4] = biological target: T3, human CCL20-secreted alkaline …; experiment: ELISA (fluorescent HRP substrate): CCL20-SEAP captured on anti-alkaline phosphatase in 5-fold dilutions from 20 nM (x axis, nM), antibody at 1 ug/ml; the text rounds this number to 62 pM
Procedure: as §1, with “reader. […]” for “reader.”

[5] = biological target: T3, human CCL20-secreted alkaline …; experiment: ELISA, serially diluted CCL20-SEAP captured by anti-alkaline phosphatase antibody, antibody at 1 µg/ml; human CCL20-SEAP
Procedure: as §1, with “reader. […]” for “reader.”

[6] = biological target: rat CCL20-secreted alkaline phosphatase (SEAP) fusion (rat, UniProt P97884 27-96; P05187 23-511); experiment: ELISA on CCL20-SEAP, Abs 450; x axis 'ug/ml' in 4-fold steps down from 10, taken as the antibody concentration as in FIG. 11C
[7] = biological target: T1, cynomolgus CCL20-secreted alkaline …; experiment: as above
[8] = biological target: T2, rhesus CCL20-secreted alkaline …; experiment: as above
[9] = biological target: T3, human CCL20-secreted alkaline …; experiment: as above

T3 sequence (P78556 27-96): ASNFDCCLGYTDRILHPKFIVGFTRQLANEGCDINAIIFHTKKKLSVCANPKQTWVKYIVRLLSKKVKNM
rat CCL20-secreted alkaline phosphatase (SEAP) fusion, sequence (P97884 other isoform, or with tags, fused parts or gaps): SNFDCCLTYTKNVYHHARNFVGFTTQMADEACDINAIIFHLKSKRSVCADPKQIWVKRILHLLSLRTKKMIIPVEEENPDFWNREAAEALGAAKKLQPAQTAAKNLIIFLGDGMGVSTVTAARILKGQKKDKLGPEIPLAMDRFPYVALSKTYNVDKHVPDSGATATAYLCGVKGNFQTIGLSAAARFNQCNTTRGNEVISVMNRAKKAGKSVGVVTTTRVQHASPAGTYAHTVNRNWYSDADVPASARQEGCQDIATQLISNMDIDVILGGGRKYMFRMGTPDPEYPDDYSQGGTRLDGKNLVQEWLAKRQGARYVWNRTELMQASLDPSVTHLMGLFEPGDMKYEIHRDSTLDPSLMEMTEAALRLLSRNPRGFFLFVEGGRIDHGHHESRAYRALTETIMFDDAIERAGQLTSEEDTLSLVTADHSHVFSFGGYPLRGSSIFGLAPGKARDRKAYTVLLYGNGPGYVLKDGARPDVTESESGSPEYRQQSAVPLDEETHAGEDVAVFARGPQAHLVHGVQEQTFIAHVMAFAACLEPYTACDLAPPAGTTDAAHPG

Binder	EC50 [1] [nM]	EC50 [2] [nM]	EC50 [3] [nM]	binding result (recombinant human CCL16)	EC50 [4] [nM]	EC50 [5] [nM]	binding result [6]	EC50 (read off the curve) [7] [µg/mL]	EC50 (read off the curve) [8] [µg/mL]	EC50 (read off the curve) [9] [µg/mL]
B1	0.162	0.0629	0.0459	–	–	–	–	–	–	–
B2	–	–	–	no binding (tested: 10 ug/ml)	0.0619	0.062	–	–	–	–
B3	–	–	–	no binding (tested: 10 ug/ml)	–	–	no binding (tested: 10 ug/ml)	~0.009	~0.01	~0.009
B4	0.101	0.0498	0.0336	–	–	–	no binding (tested: 10 ug/ml)	~0.03	~0.03	~0.03
